Results from PMC7954794, “Protein context shapes the specificity of SH3 domain-mediated interactions in vivo” (Nature Communications, 2021).

Tests used:
Type in all cases: cell-based, Saccharomyces cerevisiae
[1] = test system: Abp1 (1xFLAG); experiment: Western blot expression level of Abp1 SH3 mutants (Fig. S3C-D)
Protocol: Precultures of yeast cells expressing baits fused with the DHFR F[1,2]-FLAG were grown overnight at 30 °C with agitation in synthetic complete medium. The next day, cells were expanded in synthetic complete medium to reach their exponential phase (OD600 of around 1.0), pelleted, and frozen at −80 °C. The equivalent of fifty OD600 of cells was resuspended in ice-cold yeast lysis buffer (10 mM Tris-HCl pH 7.4, 150 mM NaCl, 0.5 mM EDTA (Millipore Sigma), 1% Triton X-100 (Millipore Sigma), and one cOmplete Mini Protease Inhibitor Cocktail (Millipore Sigma) per 10 mL) with […] glass beads (Millipore Sigma) and disrupted at 4 °C by 10 cycles of 2 min vortexing and 2 min cooldown. The equivalent of […] of lysed cells was used for the immunoprecipitation of the bait proteins using FLAG-M2 agarose beads (Millipore Sigma). The beads were incubated with the cell lysates for 120 min at 4 °C with a slow rotation, followed by three washes with the yeast lysis buffer.
Protein extracts and affinity-purified baits from yeast and human lysed cells were migrated on 10% polyacrylamide gels. The separated proteins were then transferred to nitrocellulose membranes. Validation of correct protein loading was done with ponceau staining of the membranes. Before the primary antibody incubations, membranes were blocked in 5% milk. Protein signals were detected on an Amersham Imager 600RGB (GE Healthcare) following the incubation of the membranes with the appropriate HRP-conjugated secondary antibodies and the Clarity Western ECL Substrate (Bio-Rad). The antibodies used in this study are M2-HRP (A8592, Sigma, 1/50,000), rabbit anti-FLAG (F7425, Sigma, 1/1000), PAK (SC-881, Santa Cruz, 1/200), p130cas/BCAR1 (SC-860, Santa Cruz, 1/200), actin (Cell Signaling Technology, 1/2000), anti-mouse HRP (Cell Signaling Technology, 1/10,000) and anti-rabbit HRP (Cell Signaling Technology, 1/10,000). The quantification of the WB signals was performed with the Amersham Imager 600 analysis software (GE Healthcare). […]
C, WB comparing expression levels of selected Abp1 SH3 mutants with WT Abp1. An asterisk represents a stop codon, which inhibits translation of the 1xFLAG epitope. D, Quantification of the relative level of expression of Abp1 SH3 mutants by WB as in C, (log2 of Abp1 SH3 mutant/Abp1 WT ratio, WB relative level of expression of 0 for WT Abp1) compared to their DMS scores (Hua2 (left): Pearson’s r = -0.34, p-value = 0.46, Lsb3 […]
(right): Pearson’s r = -0.81, p-value = 0.03). […]
Most […]
interface residues sensitive to mutations, such as Y7, E13, E16, V3 1, D32, D34, L48 and Y53, specifically affect Hua2 PPI. See also Supplementary Table 4.

[2] = test system: Hua2; experiment: Low-throughput liquid DHFR-PCA of selected Abp1 SH3 mutants (Fig. S3F); details: average
Protocol: Liquid DHFR-PCA low-throughput experiments were performed to validate the PPIs identified as affected by the SH3 domain deletions in the high-throughput solid DHFR-PCA screen (256 PPIs weaker or lost and 116 PPIs stronger or gained following domain deletions). Mating and the diploid selection were performed as described for the large-scale experiment, with the exception that the plates were in 384 formats. Following the second diploid selection, diploid cells were inoculated in a 96 v-shaped well plate using a robotically manipulated 96 pin tool in a synthetic complete medium with MSG at pH 6.0 with NAT and HPH. After 48 h of growth, optical density (OD) was read using a TECAN Infinite F200 Pro, and dilutions to 1 OD in sterile nanopure water were prepared. Cells were then diluted to 0.1 OD by combining 25 µl of cell suspension at OD = 1 and 225 µl of PCA selection media without agar in a 96-wells plate. Plates were incubated at 30 °C in a TECAN Infinite M Nano and OD was monitored each 15 min for 72 h. […]
Selected non-conserved positions (E6 , E13, N15 and N27) sensitivities to mutations for the Abp1-Hua2 PPI were tested in a low -throughput liquid DHFR -PCA assay. The growth of the mutants in the low -throughput experiment (average of four replicates of the total OD for each growth curve, y axis ) is compared to the mutants DMS score (x axis). […]

[3] = test system: Hua2; experiment: Deep mutational scanning of Abp1 SH3, Abp1-Hua2 DHFR-PCA (DMS score)
Method in brief: (§1)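 Yeast carrying single-codon Abp1 SH3 variants at the endogenous locus, each paired with a Hua2 or Lsb3 DHFR-fragment partner; binding scored by growth over two successive 72 h PCA selections at 30 °C. Illumina counts before and after selection give the DMS score; independent duplicates.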

[4] = test system: Lsb3; experiment: Deep mutational scanning of Abp1 SH3, Abp1-Lsb3 DHFR-PCA (DMS score); details: Abp1-Lsb3 DHFR-PCA; WT = 0; Fig. S3C-D
Method in brief: as §1

[5] = test system: growth of ABP1 SH3-swapped strains in hygromycin B; experiment: Hygromycin B resistance assay in liquid culture (Fig. S2E); details: 37 °C, 24 h, n = 3
Protocol: For the hygromycin B resistance assays in liquid cultures, the ABP1 SH3 swapped strains including the ABP1 SH3-deleted and ABP1 KO strain were grown overnight at 30 °C as precultures in synthetic complete medium with MSG. The next day, OD was measured with a TECAN Infinite F200 Pro plate reader, and the cultures were diluted to OD of 1.0 in sterile nanopure water. The different strains were further diluted at 0.1 OD by adding 25 µl of cultures to 225 µl of synthetic complete medium with MSG or with MSG and Hygromycin B 120 µg/mL in 96 wells plate (final concentration of 108 µg/mL). Cells were incubated in a TECAN Infinite M Nano plate reader at 37 °C for 24 h and OD was measured every 15 min.

[6] = test system: Abp1 PPIs; experiment: DHFR-PCA of Abp1 SH3-swapped baits (Fig. 2B-D, S2C, S2F); details: DHFR-PCA, quadruplicate
Method in brief: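 Interactions were scored by DHFR protein-fragment complementation. DHFR F[1,2]-tagged Abp1 strains, whose SH3 was swapped for yeast or human ortholog domains, were crossed on YPD at 30 °C for 48 h with a 1536-format array of 575 prey-DHFR F[3] strains and 40 negatives, giving four replicates per pair. PCA selection lasted 4 days after double diploid selection.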

B1: E13E (protein, UniProt P15891 2-592, looked up)
Actin-binding protein: ALEPIDYTTHSREIDAEYLKIVRGSDPDTTWLIISPNAKKEYEPESTGSSFHDFLQLFDETKVQYGLARVSPPGSDVEKIIIIGWCPDSAPLKTRASFAANFAAVANNLFKGYHVQVTARDEDDLDENELLMKISNAAGARYSIQTSSKQQGKASTPPVKKSFTPSKSPAPVSKKEPVKTPSPAPAAKISSRVNDNNDDDDWNEPELKERDFDQAPLKPNQSSYKPIGKIDLQKVIAEEKAKEDPRLVQKPTAAGSKIDPSSDIANLKNESKLKRDSEFNSFLGTTKPPSMTESSLKNDDDKVIKGFRNEKSPAQLWAERKAKQNSGNAETKAEAPKPEVPEDEPEGEPDVKDLKSKFEGLAASEKEEEEMENKFAPPPKKSEPTIISPKPFSKPQEPVKAEEAEQPKTDYKKIGNPLPGMHIEADNEEEPEENDDDWDDDEDEAAQPPLPSRNVASGAPVQKEEPEQEEIAPSLPSRNSIPAPKQEEAPEQAPEEEIEEEAEEAAPQLPSRSSAAPPPPPRRATPEKKPKENPWATAEYDYDAAEDNELTFVENDKIINIEFVDDDWWLGELEKDGSKGLFPSNYVSLGN
modifications: synonymous codon change E13E in SH3
In the case of B1, the “Ratio Mutant/WT Flag” value ([1]; Western blot Flag signal of mutant relative to WT) is reported as 0.6362, the “Flag (2 bands)” value ([1]; Western blot, Flag signal, 2 bands) is reported as 23257 and the “ave_au (DMS validation)” value [2] is reported as 78.0323 au. For the same molecule, the “DMS score Hua2” value ([3]; Abp1-Hua2 DHFR-PCA, WT = 0, Fig. S3C-D) was -0.2784, the “DMS Score” value ([3]; condition HUA2_MTX2, amino acid mutation format, Fig. S3F) was 1.334 and the “DMS score Lsb3” value [4] was -0.3311.

B2: Abp1SH3 in Abp1: Abp1 with its own SH3 reintroduced by editing (control) (protein)
chain: MALEPIDYTTHSREIDAEYLKIVRGSDPDTTWLIISPNAKKEYEPESTGSSFHDFLQLFDETKVQYGLARVSPPGSDVEKIIIIGWCPDSAPLKTRASFAANFAAVANNLFKGYHVQVTARDEDDLDENELLMKISNAAGARYSIQTSSKQQGKASTPPVKKSFTPSKSPAPVSKKEPVKTPSPAPAAKISSRVNDNNDDDDWNEPELKERDFDQAPLKPNQSSYKPIGKIDLQKVIAEEKAKEDPRLVQKPTAAGSKIDPSSDIANLKNESKLKRDSEFNSFLGTTKPPSMTESSLKNDDDKVIKGFRNEKSPAQLWAERKAKQNSGNAETKAEAPKPEVPEDEPEGEPDVKDLKSKFEGLAASEKEEEEMENKFAPPPKKSEPTIISPKPFSKPQEPVKAEEAEQPKTDYKKIGNPLPGMHIEADNEEEPEENDDDWDDDEDEAAQPPLPSRNVASGAPVQKEEPEQEEIAPSLPSRNSIPAPKQEEAPEQAPEEEIEEEAEEAAPQLPSRSSAAPPPPPRRATPEKKPKENPWATAEYDYDAAEDNELTFVENDKIINIEFVDDDWWLGELEKDGSKGLFPSNYVSLGN
modifications: left off: DHFR F[1,2], C-terminal, kept | FLAG, C-terminal, kept
With B2 the Hygromycin phenotype [5] was “fully reproduces WT sensitivity” and the “Kendall's τ of PPI profile with WT Abp1” value [6] was 0.93.
